Here are results for four molecules from US12611443B2, “Methods and compositions related to therapeutic peptides for cancer therapy” (THE UNIVERSITY OF CHICAGO, priority 2018, dated 2026).

In test [1] the test system is cancer cells. Description: ELANE internalization by cancer cells and effect of endocytosis inhibitor. It counts as cell-based. The protocol:
(§1) FIGS. 1A-1K. ELANE cleaves CD95 to selectively kill cancer cells. (A): Heatmap summary of ELANE's effects on survival, stress, and apoptosis pathways in cancer cells and healthy cells. (B-C): Cancer cells were treated with ELANE (100 nM) and CD95 cleavage was assessed by western blotting using anti-N-terminal (B) or anti-C-terminal antibodies (C). *, lower molecular weight CD95 fragment. (D): Cancer cells or non-cancer cells were transduced to overexpress CD95 proteins, and effects on ELANE-mediated apoptosis were quantified by ANXAS at 30 min. n=2/group. See FIG. 1I for transduction and CD95 over-expression. (E): Cleavage of recombinant human CD95 N-terminal (aa 1-173) or C-terminal (aa 212-335) proteins by ELANE was assessed by SDS-PAGE and Coomassie blue staining. (F): Bands from (E) were digested with trypsin and analyzed by mass spectrometry to identify putative ELANE cleavage sites (i.e., peptides with non-tryptic ends). Major non-tryptic peptides were quantified by ion chromatograms. (G): Schematic of ELANE cleavage sites in CD95. […] (H): Cleavage of recombinant peptides corresponding to aa 214-231 and aa 317-335 in CD95 by ELANE was monitored by mass spectrometry. (I): Cancer cells or non-cancer cells were treated with fluorescein-labeled ELANE for 10 min and uptake was visualized by immunofluorescence. (J): ELANE catalytic activity in cancer cell lysates following exposure to ELANE for 30 mins in the presence and absence of Dynasore (60 μM endocytosis inhibitor). Effect of Dynasore on cancer cell killing capability of ELANE (measured by calcein-AM). n=6/group. (K): Cancer cells or non-cancer cells were transduced to overexpress various CD95 proteins, and cell viability in the absence of ELANE was determined by calcein-AM. n=10/group. *, p<0.05 Student's t-test.

For test [2], the system named is human/murine cancer cells. Description: In vitro cell viability of cancer cells (calcein-AM, CASP3, ANXA5). It counts as cell-based. To be noted: catalytic inactivation confirmed. An excerpt: Cell lines. The ovarian cancer cell lines—CAOV3, OVCAR3, OVCAR4, OVCAR5, A2780, A2780/CP70, HeyA8, TykNu, SKOV3, ID8, and ID8p53-/- were a gift from Dr. Ernst Lengyel, University of Chicago. The breast cancer cell lines—MDA-MB-231, MDA-MB-231.BM1, MCF-7, M6C, E0771, and E0771.LMB were a gift from Dr. Marsha Rosner, University of Chicago. The colon carcinoma cell line RKO, glioblastoma cancer cell line T98G, osteosarcoma cell lines U-2OS and Saos-2, and the hepatocellular carcinoma cell line HepG2 were a gift from Dr. Kay McLeod, University of Chicago. The lung cancer cell line NCI-H552 was a gift from Dr. Stephanie Huang, University of Chicago, and A549 and LLC1 cells were purchased from ATTC. The melanoma cell lines—B16F10, Mel888, Mel1106, and SK-MEL-28 cells were a gift from Dr. Thomas Gajewski, University of Chicago. The pancreatic cancer cell line PANC1 was a gift from Dr. Yamuna Krishnan, University of Chicago. The leukemia cell line K562 was a gift from Dr. Amittha Wickrema, University of Chicago.
The prostate cancer cell lines—CWR22Rv1, LAPC4, and LNCaP were a gift from Dr. Donald Vander Griend, University of Chicago. The neuroblastoma cell lines—SK-N-BE(2) and NBL-WN cells were a gift from Dr. Lucy Godley, University of Chicago.
Neutrophil media collections. Freshly isolated human or murine neutrophils were plated in serum-free DMEM for 24 h. Conditioned media was collected, spun at 500×g for 5 min, and media protein levels were determined with a Bradford assay (Biorad).
PMN media manipulations. For boiling, PMN media was boiled at 95° C. for 5 min and spun at 15,000×g for 10 min to remove precipitated proteins. For dialysis, PMN media was placed into a Slide-a-Lyzer™ cassette (3.5 kDa cutoff, ThermoFisher Scientific) and dialyzed against 2×4L of PBS at 4° C. for 4 h. For PMSF-inactivation, PMN media was treated with PMSF (1 mM, Sigma) or A1AT (42 nM, Athens Research & Technology) and incubated at room temperature for up to 2 h. Residual PMSF was eliminated with a PD-10 desalting column (GE Healthcare Life). Inhibition of ELANE catalytic activity was confirmed using a chromogenic substrate activity assay (see below). For serum-spiking experiments, human, mouse, or fetal bovine serum (1% or 10%) was added to PMN media prior to or after exposing cancer cells. For immune-depletion studies, ELANE or ECP were immunoprecipitated using anti-ELANE (N2C3, GeneTx) or anti-ECP (MB S2535165, MyBioSource) coupled to Pierce™ Protein A/G Magnetic Beads (ThermoFisher Scientific).
(§2) In vitro cell viability assays. […] Luminescence was measured using a Victor X3 luminometer (PerkinElmer).

Test [3] has as its system tumors (MDA-MB-231, A549, MEL888, M1, 4195, E0771, LLC1, B16F10). Description: Intra-tumoral treatment of tumor models (xenograft, PDX, syngeneic). It counts as in vivo, mice. The following applies: E0771 TNBC model, IT, 12 μg/day. The procedure: Tumor inoculation and treatment. MDA-MB-231 cells (2×10^6), A549 cells (2×10^6) with Matrix Type 3), or MEL888 cells (2×10^6 with Matrix Type 3) were injected into athymic nude mice (Charles River); M1 or 4195 cells (50,000) were injected into NOD.SCID mice (JAX); and E0771 cells (0.5×10^6), LLC1 cells (0.5×10^6), or B16F10 cells (1×10^6), were injected into C57BL/6 mice (JAX). For TNBC models (MDA-MB-231, E0771, M1, 4195), cells were injected into the 4th mammary fat pad of the right ventral side. For all other models (A549, LLC1, MEL888, B16F10), cells were injected into the flank. Once tumors reached ˜100 mm^3, ELANE or PMSF-ELANE (11.6 μg/100 μL), or neutrophil medias or HSA (50 μg/100 μL) were delivered IT once/day for 5 days. Tumor volume was assessed by calipers, and experiments were terminated when tumor volume in control mice reached >1000 mm^3.
Tumor immunohistochemistry. Tumors were fixed in 4% paraformaldehyde in PBS for 24 h, embedded in paraffin blocks, and sectioned (5 μm). Slides were stained with cCASP3 (9661) and cPARP (9625) antibodies from Cell Signaling Technology. Signals were developed using the VECTASTAIN ABC kit (Vector Laboratories) or fluorescently-labeled secondary antibodies (melanoma models). For the TUNEL assay, staining was performed with the DeadEnd™ colorimetric or fluorometric TUNEL systems (Promega). Cell nuclei were labeled with haematoxylin or Hoechst 33342 (ThermoFisher Scientific). Images were obtained with a Nikon Eclipse Ti2 microscope and analyzed using NIS-Elements software.

The subject of test [4] is human and murine cancer cells. Description: CD95 overexpression, ELANE-mediated apoptosis (ANXA5). It counts as cell-based. To be noted: ELANE 40 nM, ANXA5 at 30 min. The procedure:
FIGS. 2A-2D Overexpressing CD95 proteins accelerates cancer cell killing by ELANE. Polycistronic adenoviral vectors were prepared to express the human and mouse CD95 sequences followed by the Encephalomyocarditis virus (EMCV) internal ribosome entry site and dTomato sequence under the control of the cytomegalovirus (CMV) promoter. Human and murine cancer cells or non-cancer cells were transduced to over-express full-length CD95, N-terminal CD95 (human: aa 1-209; mouse: aa 1-204), or C-terminal CD95 (human: aa 212-335; mouse: aa 204-327). (A): Transduction efficiency quantified by dTomato (Left). CD95 levels in dTomato− and dTomato+ cells quantified by geometric mean (MFI) (Middle). ANXA5 levels in dTomato− and dTomato+ cells 30 min after treatment with ELANE (40 nM) (Right). Representative data for A549 cells are shown. (B-C): Quantification of transduction efficiency (B) and relative CD95 overexpression (C) for cancer cells and non-cancer cells. (D): Quantification of ANXA5 levels following ELANE treatment (40 nM, 30 min) for mouse cancer cell lines (E0771, B16F10). *, p<0.05 Student's t-test.
as §2
(§3) CD95 overexpression studies. Polycistronic adenoviral vectors were prepared to express the human and mouse CD95 sequences followed by the Encephalomyocarditis virus (EMCV) internal ribosome entry site and dTomato sequence under the control of the cytomegalovirus (CMV) promoter (VectorBuilder). Human and murine cancer cells or normal or non-cancer cells were transduced to over-express full-length CD95, N-terminal CD95 (human: aa 1-209; mouse: aa 1-204), C-terminal CD95 (human: aa 212-335; mouse: aa 204-327), or C-terminal CD95 that mimicked ELANE cleavage at site 1 (human: aa 221-335), site 2 (human: aa 212-331), or both sites (aa 221-331). Cancer cells or normal or non-cancer cells were transduced with adenoviruses at an MOI of 50-250 depending on cell type, and expression of dTomato and CD95 (human: 558814; mouse, mouse: 565130, BD Biosciences) were confirmed by flow cytometry. A vector encoding GFP (Vector Builders) was used as a control.

In test [5] the test system is cancer cells. Description: CD95 protein overexpression in cancer cells, viability in absence of ELANE (calcein-AM). It counts as cell-based, human. The following applies: transient overexpression. The protocol:
as §1, §2, §3

A further test relates to MDA-MB-231 cells. Description: Doxycycline-inducible Tet-on expression of C or C1-2 in MDA-MB-231 cells. The following applies: Tet-on MDA-MB-231, doxycycline 0.2 or 2 μg/mL, 72 h, Calcein AM. It counts as cell-based, human. The protocol: FIG. 4 Inducible Expression System. Scheme of doxycycline inducible Tet-on system to express either C (aa. 157-335) or C1-2 (aa. 221-331). C1-2 (DD containing fragment) upon addition of doxycycline (both in vitro and in vivo).
FIG. 5 Confirmation of C1-2 expression and cancer cell selective killing. (A) Tet-on C or C1-2 transduced MDA-MB-231 cells were treated with 2 μg/mL doxycycline (2 μg/mL) for 24 h. Cell lysates were collected for western blot. Confirming the expression of C or C1-2 expression. (B) Tet-on C or C1-2 transduced MDA-MB-231 cells were treated with 0.2 or 2 μg/mL doxycycline for 72 h. Cell viability was measured by Calcein AM. […] (C) Tet-on C1-2 transduced MCF10A cells were treated with 2 μg/mL doxycycline. Cell viability was measured at various time points by Calcein AM.
FIG. 6 In vitro testing MDA-MB-231 cell death post C1-2 induction. (A) Various single colony of Tet-on C1-2 transduced MDA-MB-231 cells were treated with 2 μg/mL doxycycline (2 μg/mL) for 72 h. Cell viability was measured by Calcein AM. Different colonies have different susceptibility of death post C1-2 induction. (B) C1-2 expression of various single colony of Tet-on C1-2 transduced MDA-MB-231 cells post doxycycline treatment were measured by western blot (C), and the level at 24 h was correlated with % death (normalized by full length). […] (C) Immunoblot of C1-2 and full length (FL) CD95 expression for various colony.

As for `O=C(N/N=C/c1ccc(O)c(O)c1)c1cc2ccccc2cc1O` [Dynasore], the “effect on PMN media-mediated killing” value in the test with cancer cells [1] (Dynasore) is on record as “protected cancer cells from PMN media-mediated killing”. In addition, in the test with cancer cells [1] (Dynasore 60 μM), the “effect on ELANE uptake” value is reported as “attenuated ELANE uptake” and the “effect on ELANE-induced apoptosis of cancer cells” value was “protected cancer cells from apoptosis”.

B1: PMSF-ELANE: ELANE inactivated with PMSF (or A1AT) (protein, UniProt P08246 30-267, looked up)
Neutrophil elastase: IVGGRRARPHAWPFMVSLQLRGGHFCGATLIAPNFVMSAAHCVANVNVRAVRVVLGAHNLSRREPTRQVFAVQRIFENGYDPVNLLNDIVILQLNGSATINANVQVAQLPAQGRRLGNGVQCLAMGWGLLGRNRGIASVLQELNVTVVTSLCRRSNVCTLVRGRQAGVCFGDSGSPLVCNGLIHGIASFVRGGCASGLYPDAFAPVAQFVNWIDSIIQRSEDNPCPHPRDPDPASRTH
modifications: PMSF-inactivated
With B1, the “cancer cell killing after inactivation with PMSF or A1AT” value in test [2] was “could no longer kill cancer cells”. Besides, the “therapeutic benefit, dose finding” value in test [3] is recorded as “did not produce unexpected worsening”.

B2: fluorescein-labeled ELANE: fluorescein-labeled ELANE used for uptake (protein, UniProt P08246 30-267, looked up)
Neutrophil elastase: IVGGRRARPHAWPFMVSLQLRGGHFCGATLIAPNFVMSAAHCVANVNVRAVRVVLGAHNLSRREPTRQVFAVQRIFENGYDPVNLLNDIVILQLNGSATINANVQVAQLPAQGRRLGNGVQCLAMGWGLLGRNRGIASVLQELNVTVVTSLCRRSNVCTLVRGRQAGVCFGDSGSPLVCNGLIHGIASFVRGGCASGLYPDAFAPVAQFVNWIDSIIQRSEDNPCPHPRDPDPASRTH
modifications: fluorescein label
notes: fluorescein-labeled ELANE used for uptake
Take B2: in the test on cancer cells [1] (10 min, immunofluorescence), the “uptake by cancer cells” value is reported as “rapidly internalized”.

B3: C peptide: C-terminal CD95 peptide containing both cleavage sites (aa. 212-335); Tet-on C printed as aa. 157-335 (protein)
chain: SPTLNPETVAINLSDVDLSKYITTIAGVMTLSQVKGFVRKNGVNEAKIDEIKNDNVQDTAEQKVQLLRNWHQLHGKKEAYDTLIKDLKKANLCTLAEKIQTIILKDITSDSENSNFRNEIQSLV
For B3, the “effect of overexpression on ELANE-mediated killing” value in test [4] was “accelerated ELANE-mediated killing in human cancer cells”; in test [4] (listed as aa. 212-335 of SEQ ID NO:1), “accelerated ELANE-mediated killing in both human and murine cancer cells”. Besides, the “cancer cell death/toxicity on expression in the absence of ELANE” value with cancer cells [5] is “not toxic”. Also, the “cell death/apoptosis on doxycycline-induced expression” value in the test on MDA-MB-231 cells is recorded as “did not”; in the test on MDA-MB-231 cells (listed as C) it was “not C caused MDA-MB-231 cell death”.
